Assay results as given in patent publication US20110165145A1 (published 2011).
Substitutions are numbered along the chain they refer to.

T1: IGF binding protein 4 (BP4) (UniProt P22692 22-258)
T1 construct: also called IGF BP4
T1 sequence (looked up): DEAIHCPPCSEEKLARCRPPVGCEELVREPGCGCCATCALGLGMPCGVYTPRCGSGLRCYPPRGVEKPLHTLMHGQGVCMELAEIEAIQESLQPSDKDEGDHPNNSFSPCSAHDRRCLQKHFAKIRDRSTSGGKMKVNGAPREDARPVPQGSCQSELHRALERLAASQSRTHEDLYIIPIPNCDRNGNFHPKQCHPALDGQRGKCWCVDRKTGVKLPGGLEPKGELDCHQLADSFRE

T2: IGF binding protein 2 (BP2) (UniProt P18065 36-325)
T2 construct: also called IGF BP2
T2 sequence (looked up): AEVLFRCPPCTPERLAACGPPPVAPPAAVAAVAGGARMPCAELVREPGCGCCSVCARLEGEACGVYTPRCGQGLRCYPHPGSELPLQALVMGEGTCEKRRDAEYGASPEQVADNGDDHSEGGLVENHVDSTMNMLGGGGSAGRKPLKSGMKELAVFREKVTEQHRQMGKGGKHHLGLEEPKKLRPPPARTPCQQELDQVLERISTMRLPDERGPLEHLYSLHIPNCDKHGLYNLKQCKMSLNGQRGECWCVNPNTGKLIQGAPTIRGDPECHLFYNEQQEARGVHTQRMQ

B1: M0064-F02 IgG (parental, non-germlined) (antibody, V domains shown)
VH: EVQLLESGGGLVQPGGSLRLSCAASGFTFSNYIMWWVRQAPGKGLEWVSVISSSGGMTRYADSVKGRFTISRDNSKNTLYLQMNSLRAEDTAVYYCARDNGDYVGEKGFDIWGQGTMVTVSS
VL: DIQMTQSPSSLSASVGDRVTITCRASQSISNYLNWYQQKPGKAPKLLIYTASTLQSGVPSRFSGSASGTDFTLTINSLQPEDFATYSCQQSYNSPWTFGQGTKVEIK
B2: X0008-A01 (germlined M0064-F02 IgG) (antibody, V domains shown)
VH: B1 VH
VL: B1 VL with A66G, N76S, S87Y
B3: M0063-F02 Fab (Fab, V domains shown)
VH: EVQLLESGGGLVQPGGSLRLSCAASGFTFSKYEMDWVRQAPGKGLEWVSVISSSGGGTIYADSVKGRFTISRDNSKNTLYLQMNSLRAEDTAMYYCARGRTLYGGAFDIWGQGTMVTVSS
VL: DIQMTQSPSSLSASVGDRVTITCRASQPINTYLNWYQQRPGKAPRILIYTSSTLQSGVPSRFSGSGSGTDFTLTISSVQPEDFATYYCQQSYSFPLTFGGGTKVEIKR
notes: soluble Fab (sFab); also called R0032-A01
B4: M0063-F02 IgG (parental) (antibody, V domains shown)
VH: B3 VH
VL: DIQMTQSPSSLSASVGDRVTITCRASQPINTYLNWYQQRPGKAPRILIYTSSTLQSGVPSRFSGSGSGTDFTLTISSVQPEDFATYYCQQSYSFPLTFGGGTKVEIK
B5: M0064-E04 Fab (Fab, V domains shown)
VH: EVQLLESGGGLVQPGGSLRLSCAASGFTFSVYDMNWVRQAPGKGLEWVSSISSSGGGTLYADSVKGRFTISRDNSKNTLYLQMNSLRAEDTAVYYCARDSDTSSYYWYYDLWGRGTLVTVSS
VL: DIQMTQSPSSLSASVGDRVTITCQASHDISNYLNWYQQKPGKAPKLLIYAASRLQSGVPSRFSGGGSGTDFSLTISSLQAEDFATYYCQQSYSFPRTFGQGTNLEIKR
notes: soluble Fab (sFab); also called R0032-A03; 566A-M0064-E04
B6: M0064-E04 IgG (parental, non-germlined) (antibody, V domains shown)
VH: B5 VH
VL: DIQMTQSPSSLSASVGDRVTITCQASHDISNYLNWYQQKPGKAPKLLIYAASRLQSGVPSRFSGGGSGTDFSLTISSLQAEDFATYYCQQSYSFPRTFGQGTNLEIK

Assays:
[1] = biological target: T3, IGF-IIE (amino acids 1-104 of pro-IGF-II) (human, UniProt P01344 25-128); experiment: SPR, IgG on Protein G', then ligand, then BP; competitor BP4; 0 = no significant competition, 5 = competes strongly
T3 construct: Biotinylated in the selections; also called IGF-IIE (104aa)
T3 sequence (P01344 25-128): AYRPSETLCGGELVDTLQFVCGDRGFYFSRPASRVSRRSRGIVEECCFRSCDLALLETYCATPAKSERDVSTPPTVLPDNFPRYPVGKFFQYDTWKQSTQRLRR
Experimental: (§1) BIACORE® T100 and a CM5 chip coated with Protein G were utilised to set up following assay. Approximately 1000 RU of Protein G′ was immobilized on a CM5 chip using standard amine chemistry immobilization method.
(§2) 4) Protein G′ surface was finally regenerated by injection of 10 mM Glycine pH 1.5-injected at 30 ul/min for 60 sec.

[2] = biological target: T4, insulin-like growth factor II (IGF-II), amino acids 1-67 (human, UniProt P01344 25-91); experiment: as above
T4 construct: recombinant; also called IGF-II (67aa); IGF2
T4 sequence (P01344 25-91): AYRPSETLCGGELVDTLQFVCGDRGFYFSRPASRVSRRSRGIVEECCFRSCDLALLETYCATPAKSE
Experimental: as §1, §2

[3] = biological target: T3, IGF-IIE (amino acids 1-104 of …); experiment: SPR (BIACORE), IgG
[4] = biological target: T4, insulin-like growth factor II (IGF-II), …; experiment: SPR (BIACORE), IgG
[5] = biological target: T3, IGF-IIE (amino acids 1-104 of …); experiment: SPR, IgG on Protein G', then ligand, then BP; competitor BP2; 0 = no significant competition, 5 = competes strongly
Experimental: as §1, §2

[6] = biological target: T4, insulin-like growth factor II (IGF-II), …; experiment: as above
Experimental: as §1, §2

[7] = biological target: insulin-like growth factor I (IGF-I) (UniProt P05019 49-118); experiment: cell-based or functional assay
Chain of insulin-like growth factor I (IGF-I) (P05019 49-118 limits assumed): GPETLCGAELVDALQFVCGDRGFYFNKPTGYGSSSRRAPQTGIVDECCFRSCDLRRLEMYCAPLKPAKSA

[8] = biological target: T3, IGF-IIE (amino acids 1-104 of …); experiment: competition SPR (BIACORE T100), affinity in solution, free ligand read on huIR-A ECD; measurement 2
Experimental: (§3) Competition SPR (BIACORE®) was performed under conditions of partially mass-transport limited conditions according to previously described methodology (Nieba et al., 1996). Approximately 16,700 relative response units (RU) of huIR-A (-exon11) ectodomain was coupled by standard amine chemistry to a BIACORE® CM5 chip sensor. Uncoated flow-cell surface was used as a reference. […] Regeneration of the surface was achieved by injection of 30 ul NaCltrate/NaCl pH 4.5. […] These Req estimates were subsequently plotted against total concentrations of Fab used and the resulting inhibition curve was utilised to calculate dissociation constant (KD).

[9] = biological target: T4, insulin-like growth factor II (IGF-II), …; experiment: as above
Experimental: as §3

[10] = biological target: T3, IGF-IIE (amino acids 1-104 of …); experiment: SPR (Flexchip), Fab, 1st of duplicate
[11] = biological target: T4, insulin-like growth factor II (IGF-II), …; experiment: SPR (Flexchip), Fab, 1st of duplicate
[12] = biological target: T3, IGF-IIE (amino acids 1-104 of …); experiment: competition SPR (BIACORE T100), affinity in solution, free ligand read on huIR-A ECD; measurement 1
Experimental: as §3

[13] = biological target: T4, insulin-like growth factor II (IGF-II), …; experiment: as above
Experimental: as §3

[14] = biological target: T3, IGF-IIE (amino acids 1-104 of …); experiment: cell-based or functional assay
[15] = biological target: T4, insulin-like growth factor II (IGF-II), …; experiment: cell-based or functional assay
[16] = biological target: T3, IGF-IIE (amino acids 1-104 of …); experiment: SPR (Flexchip), Fab, 2nd of duplicate
[17] = biological target: T4, insulin-like growth factor II (IGF-II), …; experiment: SPR (Flexchip), Fab, 2nd of duplicate
[18] = biological target: T3, IGF-IIE (amino acids 1-104 of …); experiment: cell-based or functional assay; remark: listed apart in the source
[19] = biological target: T4, insulin-like growth factor II (IGF-II), …; experiment: cell-based or functional assay; remark: listed apart in the source
[20] = biological target: T1, IGF binding protein 4 (BP4); experiment: SPR (BIACORE T100): BP4 injected over M0064-E04 IgG captured on Protein G', with buffer in place of IGF-II
[21] = biological target: T2, IGF binding protein 2 (BP2); experiment: SPR (BIACORE T100): BP2 injected over M0064-E04 IgG captured on Protein G', with buffer in place of IGF-II

| Binder | competition score [1] [score 0-5] | competition score [2] [score 0-5] | Kd [3] [nM] | Kd [4] [nM] | competition score [5] [score 0-5] | competition score [6] [score 0-5] | IGF-I stimulated Ba/F3 cell proliferation, sFab at 50 µg/ml [7] [% inhibition] | Kd [8] [nM] | Kd [9] [nM] | Kd [10] [nM] | Kd [11] [nM] | Kd [12] [nM] | Kd [13] [nM] | IC50, IGF-IIE stimulated Ba/F3 cell proliferation (MTS) [14] [mg/L] | IC50, IGF-II stimulated Ba/F3 cell proliferation (MTS) [15] [mg/L] | Kd [16] [nM] | Kd [17] [nM] | IC50, IGF-IIE stimulated Ba/F3 cell proliferation (Guava ViaCount) [18] [nM] | IC50, IGF-II stimulated Ba/F3 cell proliferation (Guava ViaCount) [19] [nM] | also measured |
| --- | --- | --- | --- | --- | --- | --- | --- | --- | --- | --- | --- | --- | --- | --- | --- | --- | --- | --- | --- | --- |
| B1 | 4 | 4 | 0.032 | 0.14 | 4 | 4 | – | – | – | – | – | – | – | – | – | – | – | – | – | – |
| B2 | – | – | < 0.023 | 0.023 | – | – | – | – | – | – | – | – | – | – | – | – | – | – | – | – |
| B3 | – | – | – | – | – | – | ~30 | 1.47 | 0.858 | 0.12 | 0.77 | 2.78 | 1.17 | 2.04 | 5.56 | 0.2 | 1.6 | – | – | – |
| B4 | 1 | 0 | – | – | 1 | 1 | – | – | – | – | – | – | – | – | – | – | – | 0.85 | 2 | IC50, IGF-IIE stimulated Ba/F3 cell proliferation (Guava ViaCount), second study [18]: ~10 nM; IC50, IGF-II stimulated Ba/F3 cell proliferation (Guava ViaCount), second study [19]: ~7 nM |
| B5 | – | – | – | – | – | – | ~30 | 0.424 | 1.11 | 0.093 | 0.12 | 0.429 | 0.608 | 5.46 | 3.04 | 0.12 | 0.25 | – | – | – |
| B6 | 4 | 5 | 0.24 | 0.52 | 4 | 5 | – | – | – | – | – | – | – | – | – | – | – | ~130 | ~19 | binding result [20]: no binding (tested: 50.0 nM); binding result [21]: no binding (tested: 50.0 nM) |
